# Measured values from the RNAGym collection of RNA variant scans (doi:10.1093/molbev/msab373).
# B1: Azoarcus group I ribozyme (parent)
# chain: GUGCCUUGCGCCGGGAAACCACGCAAGGGAUGGUGUCAAAUUCGGCGAAACCUAAGCGCCCGCCCGGGCGUAUGGCAACGCCGAGCCAAGCUUCGGCGCCUGCGCCGAUGAAGGUGUAGAGACUAGACGGCACCCACCUAAGGCAAACGCUAUGGUGAAGGCAUAGUCCAGGGAGUGGCGAAAGUCACACAAACCGG
# Variants of: B1
# Test: reverse-splicing fitness (ratio to wild type); higher = more active; in vitro selection; Mg2+ level not given
# How it was run: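 An in vitro group I ribozyme library with randomized positions was T7-transcribed and gel-purified. In triplicate, 10 pmol RNA in EPPS pH 7.5 was reacted with 50 pmoles of a 30-nt RNA substrate for 1 h at 37 °C across several added MgCl2 levels (1–48 mM), then stopped with EDTA. Products were reverse transcribed from a substrate-complementary primer, PCR-amplified and sequenced (HiSeq 4000). Fitness is a variant's read proportion after selection over that before, normalised to wild type.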
row,Variant,reverse-splicing fitness
1,C82A A111U A145G C150U C169A U176C,0.0162
2,C82A A111U A145G C150U C169A U176A,0.016
3,C82A A111U A145G C150U C169A U176G,0.00694
4,C82A A111U A120U A145U C169A,0.00249
5,C82A A111U A120U A145U C169G,0.00304
6,C82A A111U A120U A145U C169U,0.0039
7,C82A A111U A145G C150A U176G,0.0112
8,C82A A111U A145G C150A U176C,0.0448
9,C82A A111U A145G C150A U176A,0.0206
10,C82A A111U A120U A145G C150A C169G,0.00618
11,C82A A111U A120U A145G C150A C169U,0.00475
12,C82A A111U A120U A145G C150A C169A,0.00807
13,C82A A111U A145G C150U C169A,0.0109
14,C82A A111U A145G C150U C169G,0.00968
15,C82A A111U A145G C150U C169U,0.0139
16,C82A A111U A120U U176C,0.0105
17,C82A A111U A120U U176A,0.00842
18,C82A A111U A120U U176G,0.00275
19,C82A A111U A120U A145U C150U C169U U176A,0.00333
20,C82A A111U A120U A145U C150U C169U U176G,0.00299
21,C82A A111U A120U A145U C150U C169U U176C,0.00339

row,Variant,reverse-splicing fitness
1,C82A A111U A120U A145G U176G,0.00319
2,C82A A111U A120U A145G U176A,0.00766
3,C82A A111U A120U A145G U176C,0.0114
4,C82A A111U A120U A145U C150A C169G U176G,0.00203
5,C82A A111U A120U A145U C150A C169G U176C,0.00291
6,C82A A111U A120U A145U C150A C169G U176A,0.00333
7,C82A A111U A145C C150A U176A,0.0125
8,C82A A111U A145C C150A U176G,0.00842
9,C82A A111U A145C C150A U176C,0.0157
10,C82A A111U A145G C150G,0.0263
11,C82A A111U A145G C150U,0.222
12,C82A A111U A145G C150A,0.0371
13,C82A A111U A120U C150G C169A U176A,0.00623
14,C82A A111U A120U C150G C169A U176C,0.00557
15,C82A A111U A120U C150G C169A U176G,0.00311
16,C82A A111U A120U A145U C150G C169G U176G,0.00241
17,C82A A111U A120U A145U C150G C169G U176A,0.00327
18,C82A A111U A120U A145U C150G C169G U176C,0.00281
19,C82A A111U A145C C150U C169A U176A,0.0133
20,C82A A111U A145C C150U C169A U176G,0.00747
21,C82A A111U A145C C150U C169A U176C,0.00736

row,Variant,reverse-splicing fitness
1,C82A A111U A120U A145G C169U U176C,0.00428
2,C82A A111U A120U A145G C169U U176A,0.00414
3,C82A A111U A120U A145G C169U U176G,0.00182
4,C82A A111U A145G C150U C169G U176A,0.0134
5,C82A A111U A145G C150U C169G U176C,0.0194
6,C82A A111U A145G C150U C169G U176G,0.00676
7,C82A A111U A145C C150U C169U,0.0112
8,C82A A111U A145C C150U C169A,0.0081
9,C82A A111U A145C C150U C169G,0.00788
10,C82A A111U A120U A145G C150G C169U U176C,0.0089
11,C82A A111U A120U A145G C150G C169U U176G,0.00513
12,C82A A111U A120U A145G C150G C169U U176A,0.00862
13,C82A A111U A120U C169A U176C,0.0039
14,C82A A111U A120U C169A U176A,0.00348
15,C82A A111U A120U C169A U176G,0.00243
16,C82A A111U A120U A145G C150A C169G U176A,0.0104
17,C82A A111U A120U A145G C150A C169G U176G,0.003
18,C82A A111U A120U A145G C150A C169G U176C,0.00688
19,C82A A111U A120U A145U C150G C169A,0.00467
20,C82A A111U A120U A145U C150G C169G,0.00379
21,C82A A111U A120U A145U C150G C169U,0.00332

row,Variant,reverse-splicing fitness
1,C82A A111U A145C U176G,0.0253
2,C82A A111U A145C U176C,0.126
3,C82A A111U A145C U176A,0.0948
4,C82A A111U A120U A145G,0.0209
5,C82A A111U A120U A145U,0.0216
6,C82A A111U A120U A145G C150A U176C,0.00989
7,C82A A111U A120U A145G C150A U176G,0.00328
8,C82A A111U A120U A145G C150A U176A,0.00879
9,C82A A111U A145C C150G C169U,0.00999
10,C82A A111U A145C C150G C169G,0.00746
11,C82A A111U A145C C150G C169A,0.00825
12,C82A A111U A120U A145U U176G,0.00335
13,C82A A111U A120U A145U U176C,0.0117
14,C82A A111U A120U A145U U176A,0.0073
15,C82A A111U A145G C150A C169U U176G,0.00831
16,C82A A111U A145G C150A C169U U176C,0.0161
17,C82A A111U A145G C150A C169U U176A,0.0158
18,C82A A111U A120U A145U C169U U176C,0.00325
19,C82A A111U A120U A145U C169U U176G,0.00208
20,C82A A111U A120U A145U C169U U176A,0.00289
